Reference: US7642046B2, “Method for monitoring recruitment of proteins to the intracellular domain of a receptor in intact cells” (priority 2001, dated 2010)

Molecular target: T1, CD40 (Homo sapiens, UniProt P25942)
T1 construct: expressed in transfected cells; host or cells: HEK 293T
Experiment: Recruitment assay in intact cells: CD40 and TRAF co-expressed in 293T cells, anti-CD40 capture ELISA of lysate
Type: cell-based
Settings: for interaction with CD40 when signalosome assembly occurred in an intact cell: co-expressed in 293T cells, versus cell lysate
Protocol: In order monitor TNF receptor associated factor 1 (TRAF1) recruitment to the CD40 receptor, in intact cells, CD40 and TRAF1 encoding plasmids generated as described in example 7) were used to co-transfect the human embryonic kidney 293T cells (HEK293 ATTC CRL-1573 over expressing the T antigen) (DuBridge et al 1987). 2×10^5 cells were seeded at into 3.5 cm dishes grown 16 hours at 37° C. and transfected with 1 μg CD40 expression plasmid and 2 μg of an expression plasmid encoding TRAF by the calcium phosphate method (Kingston et al. 1993). The two expression plasmids, TRAF1 plasmid and CD40 plasmid were used for transfection at a ratio greater than 2:1 respectively in order to saturate all the CD40 molecules produced. Twenty-seven hours after transfection, the cells were detached, washed once with ice cold phosphate buffered saline (PBS) and detergent extracted with
180 μl lysis buffer [phosphate buffered saline (PBS) containing a protease inhibitor cocktail (0.16 mM Pefabloc, 105 IU Aprotinin), 1% Triton X100 and 0.1% Na Azide]. Since CD40 has a tendency for ligand independent signaling when expressed at high levels it was not necessary to activate the receptor with DC40 ligand or mimetic anti CD40 antibodies before lysis. This feature is shared by various members of the TNFR gene family (Boldin et al. 1995, Siegel et al. 2000 and Chan et al. 2000). […]
The recruitment of TRAF to CD40 can be quantitatively measured using the assay described in example 1. […] The CD40 bound TRAF concentration was measured as described in example 1. […] The necessary normalization for sample-to-sample variations in the CD40 expression was calculated with the following formula:
[formula] CD40 concentrations were determined with an ELISA employing a monoclonal antibody (solid phase) and a polyclonal anti CD40 antibody (for detection) both specific for the extracellular domain of the receptor. […]

T1 sequence (P25942 21-277): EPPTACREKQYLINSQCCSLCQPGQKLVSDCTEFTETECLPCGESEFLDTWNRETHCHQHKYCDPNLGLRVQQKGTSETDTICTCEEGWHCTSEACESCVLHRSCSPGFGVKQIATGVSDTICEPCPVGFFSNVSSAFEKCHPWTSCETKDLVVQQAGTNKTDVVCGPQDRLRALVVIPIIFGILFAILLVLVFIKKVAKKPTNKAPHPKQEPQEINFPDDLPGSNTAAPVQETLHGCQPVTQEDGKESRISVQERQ

interaction with CD40 when signalosome assembly occurred in an intact cell	dilution of the original extract up to which recruitment to the CD40 receptor can be detected (CD40 wt co-expressed with TRAF1 in 293T cells, 3 fold serial dilutions of lysate)	Molecule
clearly improved sensitivity	–	TRAF2: TNF receptor associated factor 2, human adaptor protein expressed from pcDNA3 (protein, UniProt Q12933 1-501, looked up, full-length, TNF receptor associated factor 2, human adaptor protein expressed from pcDNA3) MAAASVTPPGSLELLQPGFSKTLLGTKLEAKYLCSACRNVLRRPFQAQCGHRYCSFCLASILSSGPQNCAACVHEGIYEEGISILESSSAFPDNAARREVESLPAVCPSDGCTWKGTLKEYESCHEGRCPLMLTECPACKGLVRLGEKERHLEHECPERSLSCRHCRAPCCGADVKAHHEVCPKFPLTCDGCGKKKIPREKFQDHVKTCGKCRVPCRFHAIGCLETVEGEKQQEHEVQWLREHLAMLLSSVLEAKPLLGDQSHAGSELLQRCESLEKKTATFENIVCVLNREVERVAMTAEACSRQHRLDQDKIEALSSKVQQLERSIGLKDLAMADLEQKVLEMEASTYDGVFIWKISDFARKRQEAVAGRIPAIFSPAFYTSRYGYKMCLRIYLNGDGTGRGTHLSLFFVVMKGPNDALLRWPFNQKVTLMLLDQNNREHVIDAFRPDVTSSSFQRPVNDMNIASGCPLFCPVSKMEAKNSYVRDDAIFIKAIVDLTGL
clearly improved sensitivity	≤ 243 fold	TRAF1: TNF receptor associated factor 1, adaptor protein overexpressed in 293T cells from pcDNA3 (protein, UniProt Q13077 1-416, looked up, full-length, TNF receptor associated factor 1, adaptor protein overexpressed in 293T cells from pcDNA3) MASSSGSSPRPAPDENEFPFGCPPTVCQDPKEPRALCCAGCLSENPRNGEDQICPKCRGEDLQSISPGSRLRTQEKAHPEVAEAGIGCPFAGVGCSFKGSPQSVQEHEVTSQTSHLNLLLGFMKQWKARLGCGLESGPMALEQNLSDLQLQAAVEVAGDLEVDCYRAPCSESQEELALQHFMKEKLLAELEGKLRVFENIVAVLNKEVEASHLALATSIHQSQLDRERILSLEQRVVELQQTLAQKDQALGKLEQSLRLMEEASFDGTFLWKITNVTRRCHESACGRTVSLFSPAFYTAKYGYKLCLRLYLNGDGTGKRTHLSLFIVIMRGEYDALLPWPFRNKVTFMLLDQNNREHAIDAFRPDLSSASFQRPQSETNVASGCPLFFPLSKLQSPKHAYVKDDTMFLKCIVETST
